Reference: article PMC7572793 (Immunity, 2020)

Assays:
Assay in all cases: ELISA
(NANP)5 = target: T1, (NANP)5 (Plasmodium falciparum)
T1 chain: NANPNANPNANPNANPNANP

(NANP)6 = target: T2, (NANP)6 (Plasmodium falciparum)
T2 chain: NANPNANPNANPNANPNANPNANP

(NANP)8 = target: T3, (NANP)8 (Plasmodium falciparum)
T3 chain: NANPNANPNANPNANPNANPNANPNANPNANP

(NANP)3 = target: T4, (NANP)3 (Plasmodium falciparum)
T4 chain: NANPNANPNANP

(NANP)7 = target: T5, (NANP)7 (Plasmodium falciparum)
T5 chain: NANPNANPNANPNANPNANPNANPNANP

peptide 29 = target: T6, peptide 29 (Plasmodium falciparum 3D7)
T6 chain: NANPNANPNANPNAN

(NANP)9 = target: T7, (NANP)9 (Plasmodium falciparum)
T7 chain: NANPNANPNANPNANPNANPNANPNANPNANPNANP

Measured: binding result

B1: MGU12 (antibody, V domains shown)
VH: QVQLVESGGGVVQPGRSLRLSCAASGFSFSSYGMHWVRQAPGKGPEWVAVIWHDGSYSYYADSVRGRFTISRDNSKNTLYLQMNSLRPEDTGMYHCVKVEDYVRGSSHGGAFHIWGQGTMVTVSS
VL: DIQMTQSPSTLSASVGDRVTITCRASQTINNWLAWYQWKPGKAPELLIYKASSLESGVPSRFSGSGSGTEFTLTISSLQPDDFATYYCQQYSSYWTFGQGTKVDIK
binds: (NANP)5 | (NANP)6 | (NANP)8 | (NANP)3 | (NANP)7 | peptide 29 | (NANP)9

B2: 1210 (antibody, V domains shown)
VH: QVQLVESGGGVVQPGRSLRLSCAASGFTFSNYGMHWVRQAPGKGLEWVAVIWYDGSKKYYADSVKGRFTISRDNSKNTLYLQMNSLRAEDTAVYYCARVRDSSDYYGDAFDIWGQGTMVTVSS
VL: DIQMTQSPSTLSASVGDRVTITCRASQSISSWLAWYQQKPGKAPKLLIYKASNLESGVPLRFSGSGSGTEFTLTISSLQPDDFATYYCQQYNNYWTFGQGTKVEIK
binds: (NANP)6 | (NANP)8 | (NANP)7 | peptide 29 | (NANP)9

B3: 311 (antibody, V domains shown)
VH: QVQLVESGGGVVPPGRSLRLSCATSGFTFSNYGMHWVRQAPGKGLEWVAIIWYDGSRNFYAASVEGRFTISRDNSKNTLYLQMNSLRVEDTAVYYCARAAYYDTSGYGDYWGQGTLVTVSS
VL: QSVLTQPPSVSGAPGQTVTISCTGGSSNIGAGYDVHWYQQLPGTAPKLLIYGNINRPSGVPDRFSGSKSGTSASLAITGLQAEDEADYYCQSYDRRLSGSWVFGGGTKLTVL
binds: (NANP)5 | (NANP)6 | (NANP)8 | (NANP)3 | (NANP)7 | peptide 29 | (NANP)9

B4: 317 (antibody, V domains shown)
VH: QMQLVESGGGVVQPGRSLRLSCTASGFTFSTYAMHWVRQSPGQGLQWVAVISYHSTNKYYEDSVRGRFTISRDNSKNTLYLQMNSLRAEDTAVYYCARDGYSSSFFDFWGQGTLVTVSS
VL: DIQMTQSPSTLSASVGDRVAITCRASQSISRWLAWYQQQPGKAPKLLMSGASVLESGVPSRFSGSGSGTEFTLTISSLQPDDFATYYCQHYNSYFVTFGQGTKVEIK
binds: (NANP)5 | (NANP)8 | (NANP)3 | (NANP)7 | peptide 29 | (NANP)9

B5: CIS43 (antibody, V domains shown)
VH: QVQLVQSGAEVKKPGASVKVSCKASGYTFTSYAIHWVRQAPGQRLEWMGWIKAGNGNTRYSQKFQDRVTITRDTSTTTAYMELSSLRSEDTAVYYCALLTVLTPDDAFDIWGQGTMVTVSS
VL: not shown
binds: (NANP)9
